According to patent US20240010721A1 (HARBOUR BIOMED SHANGHAI, published 2024):

Experiments:
[1] = target: T1, human ROR1 (hROR1) on cells (human, UniProt Q01973 30-937); test: flow cytometry (FACS) on HEK293T-hROR1 cells, antibody 0.01-100 nM, median fluorescence intensity
T1 construct: whole, on cells; the cell line is named under assay; also called HEK293T-hROR1; 293T-hROR1
Procedure: (§1) The binding properties were characterized by FACS. The recombinant antibodies obtained above were serially diluted to 9 different concentrations and incubated for 1 h, and then determined for the binding ability with HEK293T-hROR1, CHO-K1-cynoROR1 and A549 cell lines (endogenously expressing ROR1), respectively. The secondary antibody was then incubated for 1 h. The results are shown in FIG. 4-6 and Table 7-2 below.

Human ROR1-ECD-his = target: T2, Human ROR1-ECD-his (human, UniProt Q01973 30-406); test: ELISA, plate coated with hROR1 ECD-his
T2 construct: extracellular domain; bought, Acrobiosystems RO1-H522y; also called hROR1-ECD-his; hROR1 ECD-his
Procedure: (§2) Screening by ELISA assay: 96-well plates (Corning 9018) were coated with 1 μg/mL hROR1 ECD-his/hROR2 ECD-his/mROR1 ECD-his proteins prepared with PBS in Example 1a above and incubated at 4° C. overnight. The liquid was then discarded, and the plates were washed 3 times with PBST, blocked with 5% milk for 2 h at room temperature, and washed 3 times with PBST. The taken supernatant was added at 100 μL/well, and the plates were incubated at room temperature for 1 h, followed by washing 3 times with PBST. 100 μL/well of secondary antibody (Sigma, Cat#: A8592) was added, the plates were incubated at room temperature for 1 h, and then washed. TMB was then added to the plates at 100 μL/well and incubated for 15 min at room temperature. Thereafter, the reaction was terminated and data were read.
(§3) a. Results of ELISA assay (the ELISA assay was performed according to the same procedures as in Example 2c, except that the added samples were recombinant antibodies and the secondary antibody was a-Fc (Genscript, Cat#: A01854))

[2] = target: T1, human ROR1 (hROR1) on cells; test: FACS, HEK293T-hROR1 cells
Procedure: as §1

[3] = target: T3, cynomolgus ROR1 (cynoROR1) on CHO-K1 cells (cynomolgus, UniProt A0A2K5WTX7 30-937); test: flow cytometry (FACS) on CHO-K1-cynoROR1 cells, antibody 0.01-100 nM, median fluorescence intensity
T3 construct: whole, on cells; also called CHO-K1-cynoROR1; CHO-K1-cyROR1
Procedure: as §1

[4] = target: T4, ROR1 (antigen of the KD determination and of the Octet dissociation measurement) (UniProt Q01973 30-403, limits assumed); test: method not stated (conventional procedures)
hROR2ECD-his [5] = target: T5, hROR2ECD-his (human, UniProt Q01974 34-403); test: ELISA, plate coated with hROR2 ECD-his
T5 construct: extracellular domain; bought, Acrobiosystems R02-H52E5; also called huROR2-his
Procedure: as §2, §3

hROR2ECD-his [6] = target: T5, hROR2ECD-his; test: ELISA, plate coated with hROR2 ECD-his; remark: listed apart in the source
Procedure: as §2, §3
The corresponding values in the table are the measured median fluorescence intensity (MFI).

[7] = target: T1, human ROR1 (hROR1) on cells; test: flow cytometry (FACS) on A549 cells (endogenous ROR1), antibody 0.01-100 nM, median fluorescence intensity
Procedure: as §1

[8] = target: T1, human ROR1 (hROR1) on cells; test: FACS, HEK293T-hROR1 cells; cytometer saturated
Procedure: as §1

[9] = target: T1, human ROR1 (hROR1) on cells; test: FACS, A549 cells
Procedure: as §1

[10] = target: T3, cynomolgus ROR1 (cynoROR1) on CHO-K1 …; test: FACS, CHO-K1-cynoROR1 cells
Procedure: as §1

[11] = target: T1, human ROR1 (hROR1) on cells; test: FACS, HEK293T-hROR1 cells; remark: listed apart in the source
[12] = target: T1, human ROR1 (hROR1) on cells; test: FACS, Panc-1 cells
[13] = target: T4, ROR1 (antigen of the KD determination …); test: Octet, antigen form not stated
[14] = target: T1, human ROR1 (hROR1) on cells; test: cell-based or functional assay

T4 sequence (Q01973 30-403 limits assumed): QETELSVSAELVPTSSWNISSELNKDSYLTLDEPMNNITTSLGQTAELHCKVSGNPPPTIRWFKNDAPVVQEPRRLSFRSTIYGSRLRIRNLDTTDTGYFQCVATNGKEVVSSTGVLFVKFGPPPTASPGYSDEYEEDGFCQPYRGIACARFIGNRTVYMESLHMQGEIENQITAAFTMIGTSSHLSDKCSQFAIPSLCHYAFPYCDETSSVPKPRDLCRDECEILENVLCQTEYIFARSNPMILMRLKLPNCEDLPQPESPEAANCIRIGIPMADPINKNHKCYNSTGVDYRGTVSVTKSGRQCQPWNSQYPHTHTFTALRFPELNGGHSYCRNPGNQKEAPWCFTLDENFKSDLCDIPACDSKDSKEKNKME
T5 sequence (Q01974 34-403): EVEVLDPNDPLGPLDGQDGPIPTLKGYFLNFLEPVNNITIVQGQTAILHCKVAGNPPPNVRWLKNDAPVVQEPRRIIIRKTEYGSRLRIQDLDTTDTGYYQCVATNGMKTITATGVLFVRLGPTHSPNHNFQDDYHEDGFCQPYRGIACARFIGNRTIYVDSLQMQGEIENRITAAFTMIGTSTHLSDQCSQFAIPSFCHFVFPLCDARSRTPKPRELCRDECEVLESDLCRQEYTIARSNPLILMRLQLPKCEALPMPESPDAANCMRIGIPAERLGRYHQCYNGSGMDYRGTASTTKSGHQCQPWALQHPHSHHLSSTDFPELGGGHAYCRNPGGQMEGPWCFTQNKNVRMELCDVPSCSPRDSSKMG
T1 sequence (Q01973 30-937): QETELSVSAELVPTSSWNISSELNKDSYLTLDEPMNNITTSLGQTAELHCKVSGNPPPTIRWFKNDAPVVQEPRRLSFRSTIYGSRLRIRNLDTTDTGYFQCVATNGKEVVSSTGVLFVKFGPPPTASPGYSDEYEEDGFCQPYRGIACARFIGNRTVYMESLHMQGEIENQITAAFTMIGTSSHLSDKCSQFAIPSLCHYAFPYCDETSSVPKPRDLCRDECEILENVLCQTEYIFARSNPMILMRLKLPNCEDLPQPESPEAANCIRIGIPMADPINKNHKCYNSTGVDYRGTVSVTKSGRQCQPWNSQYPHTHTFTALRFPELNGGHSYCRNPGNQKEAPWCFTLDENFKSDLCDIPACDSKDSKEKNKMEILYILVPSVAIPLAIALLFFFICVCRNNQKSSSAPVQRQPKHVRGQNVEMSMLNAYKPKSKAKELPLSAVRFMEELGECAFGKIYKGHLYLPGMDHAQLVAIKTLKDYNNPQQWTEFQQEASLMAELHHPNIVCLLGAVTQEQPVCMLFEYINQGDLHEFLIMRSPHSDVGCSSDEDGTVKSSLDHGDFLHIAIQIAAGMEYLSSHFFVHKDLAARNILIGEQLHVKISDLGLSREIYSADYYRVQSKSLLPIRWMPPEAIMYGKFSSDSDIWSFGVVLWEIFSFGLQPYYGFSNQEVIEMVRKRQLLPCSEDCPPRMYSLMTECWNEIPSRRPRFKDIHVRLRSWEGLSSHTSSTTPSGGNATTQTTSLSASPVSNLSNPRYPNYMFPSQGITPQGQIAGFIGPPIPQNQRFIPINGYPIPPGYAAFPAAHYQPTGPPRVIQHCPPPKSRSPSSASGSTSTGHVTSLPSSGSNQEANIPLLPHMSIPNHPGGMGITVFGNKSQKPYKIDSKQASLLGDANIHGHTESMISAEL
T2 sequence (Q01973 30-406): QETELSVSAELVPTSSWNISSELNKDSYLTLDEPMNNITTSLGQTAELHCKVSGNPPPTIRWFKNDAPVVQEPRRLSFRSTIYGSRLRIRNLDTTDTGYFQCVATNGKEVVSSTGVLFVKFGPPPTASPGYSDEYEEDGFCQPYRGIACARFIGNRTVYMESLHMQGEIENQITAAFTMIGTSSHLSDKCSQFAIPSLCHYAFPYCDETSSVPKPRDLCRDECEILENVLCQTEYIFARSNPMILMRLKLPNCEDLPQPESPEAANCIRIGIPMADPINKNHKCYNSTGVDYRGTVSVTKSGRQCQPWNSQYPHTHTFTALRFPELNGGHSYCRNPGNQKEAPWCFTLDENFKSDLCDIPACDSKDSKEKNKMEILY

Binder	ELISA signal (called MFI) (Human ROR1-ECD-his)	fold lower EC50 than reference PR000374 [2]	Kd [4]	koff [4]	kon [4]	ELISA signal (called MFI) (hROR2ECD-his [5])	binding result (hROR2ECD-his [6])	MAX(MFI) [8]	MAX(MFI) [9]	MAX(MFI) [10]	MFI [11]	MFI [12]	Response [13]	koff [13]	also measured
PR001416 (antibody, human IgG1, kappa, V domains shown, fully human IgG1, kappa) VH: QVQLVESGGGVVQPGRSLRLSCAASGFTFSTYGMHWVRQAPGKGLEWVAVIWYDGSDKDYADSVKGRFTISRDTSKNTLYLQMNSLRAEDTAVYYCAREQARSFDLWGRGTLVTVSS VL: DIVMTQSPSTLSASVGDRVTITCRASQTINNWLAWYQQKPGKAPKLLIYKASSLESGVPSRFSGSGSGTEFTLTISSLQPDDFATYYCQQYNSYSPMYTFGQGTKVEIKR	2.45	10 fold	1.27 nM	0.000342 s⁻¹	270000 M⁻¹ s⁻¹	0.0265	no binding								EC50 (read off the curve) [1]: ~2 nM; EC50 (read off the curve) [3]: ~1 nM; EC50 (read off the curve) [7]: ~0.4 nM
PR001361 (antibody, V domains shown, fully human IgG1, kappa) VH: QVQLVQSGGGVVQPGRSLRLSCTASGFTFSRYGMLWVRQAPGKGLEWVAVAWYDGVSEDYADSVKGRFTISRDNSMNTLSLQMNSLRAEDTAVYYCAREQARSFDLWGRGTLVTVSS VL: DIQLTQSPSTLSASVGDRVTITCRASQSINSWLAWYQQKPGKAPKLLIYKASSLESGVPSRFSGSGSGTEFTLTISSLQPDDFATYYCQQYKSYSPMYTFGQGTKVDIKR	2.28	10 fold	1.83 nM	0.00108 s⁻¹	590000 M⁻¹ s⁻¹	0.028	no binding	262000 MFI	4520 MFI	27200 MFI					
PR001356 (antibody, human IgG1, kappa, V domains shown, fully human IgG1, kappa; also called anti-ROR1 1015M2-E6 hIgG1; PR001356(WT)) VH: QVQLVESGGGVVQPGRSLRLSCAASGFTFSSYGMHWVRQAPGKGLEWVAVAWYDGVSEDYADSVKGRFTISRDNAKNTLYLQMNSLRAEDTAVYYCAREQARSFDLWGRGTLVTVSS VL: DIVMTQSPSTLSASVGDRVTITCRASQSINNWLAWYQQKPGKAPKLLIYKASSLESGVPSRFSGSGSGTEFTLTISSLQPDDFATYYCQQYKSYSPMYTFGQGTKVEIKR	2.38	10 fold	0.81 nM	0.000287 s⁻¹	354000 M⁻¹ s⁻¹	0.0305	no binding	262000 MFI	4630 MFI	29700 MFI	50900 MFI	5590 MFI	0.617	0.000152 s⁻¹	

Continued, in another order:

ELISA signal (called MFI) (Human ROR1-ECD-his)	fold lower EC50 than reference PR000374 [2]	Kd [4]	koff [4]	kon [4]	ELISA signal (called MFI) (hROR2ECD-his [5])	binding result (hROR2ECD-his [6])	MAX(MFI) [8]	MAX(MFI) [9]	MAX(MFI) [10]	MFI [11]	MFI [12]	Response [13]	koff [13]	Binder	also measured
2.24	10 fold	1.67 nM	0.00075 s⁻¹	448000 M⁻¹ s⁻¹	0.0305	no binding	262000 MFI	4750 MFI	23300 MFI					PR001366 (antibody, V domains shown, fully human IgG1, kappa) VH: QVQLVESGGGVVQPGRSLRLSCTASGFTFSSYGMHWVRQAPGKGLEWVAVKWYDGISQNFADSVKGRFTISRDNSKNTLYLQMNSLRAEDTAVYYCARDLARSFDIWGRGTLVTVSS VL: DIQLTQSPSTLSASVGDRVTITCRASQSINSWLAWYQQKPGKAPKLLIYKASSLESGVPSRFSGSGSGTEFTLTISSLQPDDFATYYCQQYKSYSPMYTFGQGTKVDIKR	
2.48	10 fold	1.69 nM	0.000519 s⁻¹	307000 M⁻¹ s⁻¹	0.031	no binding	262000 MFI	3890 MFI	22200 MFI	43800 MFI	6230 MFI	0.288	0.00498 s⁻¹	PR001369 (antibody, human IgG1, kappa, V domains shown, fully human IgG1, kappa; also called anti-ROR1 1015M3-H10 hIgG1; PR001369(WT)) VH: QVQLVESGGGVVQPGRSLRLSCAASGFTFSNYGIHWVRQAPGKGLEWVAIMWYDGSNTDYADSVKGRFTISRDTSKNTLFLQMNSLRAEDTAVYYCAREQARSFDLWGRGTLVTVSS VL: DIVMTQSPSTLSASVGDRVTITCRASQTINNWLAWYQQKPGKAPKLLIYKASSLESGVPSRFSGSGSGTEFTLTISSLQPDDFATYYCQQYNSYSPMYTFGQGTKVEIKR	
2.39	10 fold	2 nM	0.000637 s⁻¹	320000 M⁻¹ s⁻¹	0.038	no binding	262000 MFI	3930 MFI	27200 MFI					PR001359 (antibody, human IgG1, kappa, V domains shown, fully human IgG1, kappa) VH: QVQLVESGGGVVQPGRSLRLSCAASGFTFSTYGMHWVRQAPGKGLEWVAVTWYDGSDKDYADSVKGRFTISRDTSKNTLYLQMNSLRAEDTAVYYCAREQARSFDLWGRGTLVTVSS VL: DIVMTQSPSTLSASVGDRVTITCRASQSVNNWLAWYQQKPGKAPKLLIYKASSLESGVPSRFSGSGSGTEFTLTISSLQPDDFATYYCQQYKSYSPMYTFGQGTKVEIKR	ADCC Cytotoxicity (%), Donor 1, 1 nM [14]: 33.7%; ADCC Cytotoxicity (%), Donor 1, 10 nM [14]: 39.5%; ADCC Cytotoxicity (%), Donor 2, 1 nM [14]: 21.9%; ADCC Cytotoxicity (%), Donor 2, 10 nM [14]: 26.1%
2.38	10 fold	1.2 nM	0.000376 s⁻¹	314000 M⁻¹ s⁻¹	0.024	no binding	262000 MFI	3960 MFI	18200 MFI	43100 MFI	4960 MFI	0.601	9.38e-05 s⁻¹	PR001364 (antibody, human IgG1, kappa, V domains shown, fully human IgG1, kappa; also called anti-ROR1 1015M3-D8 hIgG1; PR001364(WT)) VH: EVQLLESGGGVVQPGRSLRLSCAASGFTFSSFGMHWVRQAPGKGLEWVAVIWYDGSDKDYADSVKGRFTISRDTSKNTLYLQMNSLRAEDTAVYYCAREQARSFDLWGRGTLVTVSS VL: DIVMTQSPSTLSASVGDRVTITCRASQTINNWLAWYQQKPGKAPKLLIYKASSLESGVPSRFSGSGSGTEFTLTISSLQPDDFATYYCQQYNSYSPMYTFGQGTKVEIKR	
2.54	10 fold	0.839 nM	0.000291 s⁻¹	347000 M⁻¹ s⁻¹	0.0285	no binding	262000 MFI	4240 MFI	30000 MFI					PR001355 (antibody, human IgG1, kappa, V domains shown, fully human IgG1, kappa) VH: QVQLVQSGGGLVQPGGSLRLSCAASGFTFSSYGMHWVRQAPGKGLEWVAVIWYDGSNKDYADSVKGRFTISRDTSKNTLYLQMNSLRAEDTAVYYCVREQARSFDLWGRGTLVTVSS VL: DIQMTQSPSSLSASVGDRVTITCRASQTMNNWLAWYQQKPGKAPKLLIYKASSLESGVPSRFSGSGSGTEFTLTISSLQPDDSATYYCQQYNSYSPMYTFGQGTKLEIKR	ADCC Cytotoxicity (%), Donor 1, 1 nM [14]: 25.7%; ADCC Cytotoxicity (%), Donor 1, 10 nM [14]: 29%; ADCC Cytotoxicity (%), Donor 2, 1 nM [14]: 14.1%; ADCC Cytotoxicity (%), Donor 2, 10 nM [14]: 14.2%
